B1: library; numbered along this chain (parent)
chain: MRKPRAAVGSGHRKQAASQEGRQKHAKNNSQAKPSACDGLARQPEEVVLQASVSSYHLFRDVAEVTAFRGSLLSWYDQEKRDLPWRRRAEDEMDLDRRAYAVWVSEVMLQQTQVATVINYYTGWMQKWPTLQDLASASLEEVNQLWAGLGYYSRGRRLQEGARKVVEELGGHMPRTAETLQQLLPGVGRYTAGAIASIAFGQATGVVDGNVARVLCRVRAIGADPSSTLVSQQLWGLAQQLVDPARPGDFNQAAMELGATVCTPQRPLCSQCPVESLCRARQRVEQEQLLASGSLSGSPDVEECAPNTGQCHLCLPPSEPWDQTLGVVNFPRKASRKPPREESSATCVLEQPGALGAQILLVQRPNSGLLAGLWEFPSVTWEPSEQLQRKALLQELQRWAGPLPATHLRHLGEVVHTFSHIKLTYQVYGLALEGQTPVTTVPPGARWLTQEEFHTAAVSTAMKKVFRVYQGQQPGTCMGSKRSQVSSPCSRKKPRMGQQVLDNFFRSHISTDAHSLNSAAQ

Variants of: B1
Assay: 8OG:A repair function score (normalized; synonymous = 0, nonsense = -1) (normalized log-likelihood score); higher = more repair activity (WT-like)
Conditions: with 8OG:A DNA repair reporter (GFP) in HEK-293 MUTYH KO cells
Summary of the method: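 MUTYH knockout HEK-293 cells carrying lentiviral MUTYH cDNA NNN codon-scan libraries were grown with 10 pg/ml doxycycline and co-transfected with mCherry and a GFP reporter of 8OG:A repair. Viable mCherry+ cells were sorted at 72 h into GFP+ (repair) and GFP− bins, with three replicates per tile, and tile amplicons were sequenced. Rosace fitness scores for each tile were turned into a normalized repair function score anchored on the synonymous and nonsense distributions. Synonymous medians were set to 0 and nonsense medians to -1, and variants below 300 counts per million at the start were dropped.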

Point of comparison: Y120A, “8OG:A repair function score” value -0.24. Against it:
- G155M — lower, -0.629
- K337G — higher, -0.0801
- D208R — lower, -1.03
- W447R — lower, -0.794
- P320S — higher, -0.0238
- P316I — lower, -0.253
- L184Y — lower, -0.855
- T263D — the same, -0.24
- S105P — lower, -0.822
- V362N — lower, -0.669
- G209R — lower, -0.364
- S298K — higher, -0.0342
- E452L — lower, -0.252
- G444H — higher, -0.155
- F376C — lower, -0.559
- V206I — higher, -0.0438
- I359C — lower, -0.249
- E452V — lower, -0.351
- V441P — higher, -0.0374
- T460C — higher, -0.0915
- F330I — higher, -0.18
- Q288D — higher, -0.0736
- L145F — higher, 0.0113
- R217A — lower, -1.02
- D243M — lower, -0.753
- L408E — lower, -1.61
- A6S — higher, -0.117
- A99W — lower, -1.08
- Q397R — higher, -0.206
- A162V — lower, -0.278
- L183S — higher, 0.0487
- A253Q — lower, -1.02
- L234S — lower, -0.827
- G170I — lower, -0.395
- R157G — lower, -0.381
- T324R — higher, 0.0185
- E90W — higher, -0.0857
- N119S — lower, -0.294
- Q182H — higher, 0.0507
- R491P — higher, -0.0953
- V53P — lower, -0.254
- Q282C — higher, -0.0445
- V414P — lower, -1.01
- R175K — higher, -0.133
- V379P — lower, -0.937
- L169C — higher, -0.0691
- P185S — higher, -0.221
- L183I — higher, -0.112
- A89L — higher, 0.00692
- S378Y — lower, -0.26
- S459D — lower, -0.823
- Q252S — lower, -0.483
- F59T — lower, -0.579
- S71M — higher, 0.00635
- P317L — higher, -0.0676
- M496Y — higher, 0.00737
- G193N — higher, 0.0644
- L58W — higher, 0.00529
- A253M — lower, -1.03
- N329G — lower, -0.365
- V207D — lower, -0.986
- K493P — higher, 0.0123
- A41C — higher, -0.0569
- D91A — higher, 0.0065
- Y120G — lower, -0.347
- P44G — higher, -0.111
- L315W — higher, -0.187
- R42E — higher, 0.021
- Q499S — higher, 0.00646
- W321I — lower, -0.25
- L432Y — lower, -0.499
- A192H — lower, -0.926
- P264G — higher, -0.159
- Q240F — lower, -0.939
- K481R — higher, 0.0229
- S138K — higher, -0.105
- S292V — higher, -0.0158
- G372W — higher, -0.135
- R491D — higher, 0.0052
- A162R — lower, -1.02
- E302G — lower, -0.316
- K464S — higher, -0.198
- G368S — higher, -0.236
- P225T — higher, -0.0501
- G123D — lower, -0.257
- C278L — lower, -1.1
- A115D — higher, -0.0868
- V117S — lower, -0.427
- Y151K — lower, -0.808
- V218C — higher, -0.211
- E64K — higher, -0.115
- A245M — higher, -0.146
- K333R — higher, 0.0284
- P402Q — higher, -0.236
- E382Q — higher, 0.185
- G193A — higher, -0.0458
- S318W — higher, 0.126
- Q397M — lower, -0.301
- A223P — lower, -0.418
- A67Q — lower, -0.481
- G248A — lower, -0.729
- G479Q — higher, 0.0264
- Q426S — higher, -0.0807
- E285D — higher, -0.0239
- M255V — lower, -0.846
- Q159D — lower, -0.824
- E167C — higher, -0.0723
- E160A — higher, 0.0427
- V53Q — higher, -0.0248
- N119R — higher, 0.0743
- A357E — higher, -0.0948
- F68C — lower, -0.545
- S518L — higher, -0.0274
- V114R — lower, -0.297
- G150V — lower, -1.22
- R279Y — higher, -0.151
- R246V — lower, -0.732
- E303P — higher, -0.218
- Q113F — higher, -0.237
- W399P — lower, -0.724
- V117P — lower, -1.02
- K127A — lower, -0.303
- S231G — higher, -0.125
- P44D — higher, -0.119
- L83M — lower, -0.533
- A456G — lower, -0.246
- E106D — lower, -0.903
- V274N — lower, -0.714
- L369W — higher, 0.187
- E395I — higher, -0.133
- C278G — lower, -1.17
- Q271T — higher, -0.00163
- F376Y — lower, -0.715
- L360A — lower, -0.845
- A36L — higher, -0.0486
- A457S — lower, -0.432
- C347S — lower, -0.457
- V206L — lower, -0.338
- Q397G — lower, -0.363
- L58S — higher, -0.0155
- L169E — lower, -0.261
- V102S — lower, -0.376
- V65A — higher, -0.138
- R506F — higher, -0.0582
- R336D — lower, -0.271
- Q240H — lower, -0.94
- P402C — higher, -0.0435
- L430M — lower, -0.448
- L290D — higher, -0.0753
- R69V — higher, -0.212
- F418I — higher, 0.255
- P264I — higher, -0.1
- R364W — lower, -1.11
- S298E — higher, -0.0588
- V328N — higher, -0.0823
- K464P — lower, -0.968
- Q132N — higher, -0.0864
- T455A — higher, -0.141
- E285G — higher, -0.0139
- T511C — higher, -0.014
- A199Q — lower, -1.11
- V379T — higher, -0.0632
- E178R — higher, 0.0879
- Q43Y — higher, -0.0469
- S298V — higher, 0.00493
- V468H — higher, -0.0347
